Assay results: US20060002969A1

Target: human matrix metalloproteinase-9 (MMP-9) (human) (UniProt P14780)
Assay: cell-based or functional assay

Sequence of UniProt P14780 (P14780 107-707 Q279R/R574P limits assumed): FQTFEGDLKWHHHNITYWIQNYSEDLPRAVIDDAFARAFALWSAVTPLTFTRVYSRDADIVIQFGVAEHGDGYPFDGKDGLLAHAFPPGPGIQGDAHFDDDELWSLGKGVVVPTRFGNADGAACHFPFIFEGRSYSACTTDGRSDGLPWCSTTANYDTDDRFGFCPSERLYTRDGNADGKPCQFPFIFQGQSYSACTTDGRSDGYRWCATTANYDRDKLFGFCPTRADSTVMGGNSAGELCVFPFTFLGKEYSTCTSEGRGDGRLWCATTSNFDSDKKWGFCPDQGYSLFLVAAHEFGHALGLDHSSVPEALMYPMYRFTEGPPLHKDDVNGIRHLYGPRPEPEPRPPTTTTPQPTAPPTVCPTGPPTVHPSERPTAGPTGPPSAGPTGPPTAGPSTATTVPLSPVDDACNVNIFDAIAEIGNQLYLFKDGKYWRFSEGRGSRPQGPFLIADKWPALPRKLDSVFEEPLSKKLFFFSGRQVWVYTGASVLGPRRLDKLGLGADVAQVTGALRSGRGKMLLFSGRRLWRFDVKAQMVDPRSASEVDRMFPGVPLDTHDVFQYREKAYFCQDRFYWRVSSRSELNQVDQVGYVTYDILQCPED

FBGC formation from human monocytes induced with IL-4 and GM-CSF (FBGC/high power field) (FBGC/high power field): 3.7 | fraction of cells fused: 9.8%
Substance: anti-human MMP-9 monoclonal antibody (raised in mouse) obtained from Chemicon International (catalog number MAB13415)
